# Laboratory results taken from IntAct's records for PubMed 16709668.
# B1: "Peptide-N(4)-(N-acetyl-beta-glucosaminyl)asparagine amidase" (Mus musculus), Q9JI78 (parent)
# chain: MASATLGSSSSSASPAVAELCQNTPETFLEASKLLLTYADNILRNPSDEKYRSIRIGNTAFSTRLLPVRGAVECLFEMGFEEGETHLIFPKKASVEQLQKIRDLIAIERSSRLDGSSKKVQFSQHPAAAKLPLEQSEDPAGLIRHSGNQTGQLPSLPSAPMVVGDSTILKVLQSNIQHVQLYENPVLQEKALTCIPVSELKRKAQEKLFRARKLDKGTNVSDEDFLLLELLHWFKEEFFRWVNNIVCSKCGGETRSRDEALLPNDDELKWGAKNVENHYCDACQLSNRFPRYNNPEKLLETRCGRCGEWANCFTLCCRALGFEARYVWDYTDHVWTEVYSPSQQRWLHCDACEDVCDKPLLYEIGWGKKLSYIIAFSKDEVVDVTWRYSCKHDEVMSRRTKVKEELLRETINGLNKQRQLSLSESRRKELLQRIIVELVEFISPKTPRPGELGGRVSGSLAWRVARGETGLERKEILFIPSENEKISKQFHLRYDIVRDRYIRVSDNNINISGWENGVWKMESIFRKVEKDWNMVYLARKEGSSFAYISWKFECGSAGLKVDTVSIRTSSQSFESGSVRWKLRSETAQVNLLGDKNLRSYNDFSGATEVTLEAELSRGDGDVAWQHTQLFRQSLNDSGENGLEIIITFNDL
# Variants of: B1
# Details: with tera_mouse Vcp
row,Variant,effect of a mutation on the interaction
1,N41P,disrupting interaction
2,G79A;F80A,disrupting interaction
